How the values were obtained:
[1] = molecular target: T1, recombinant human p21cip1 (human, UniProt P38936 1-164); assay: pull-down; purified His-tagged Akt2 proteins and His-tagged p21cip1 incubated together on ice; p21cip1 immunoprecipitated with anti-p21; immunoprecipitates probed for Akt2 by Western blot; details: both partners purified
T1 construct: In the functional row this molecule stands for p21cip1 endogenous in human myoblasts; source: recombinant, purified

[2] = molecular target: T1, recombinant human p21cip1; assay: pull-down; MBP-tagged Akt2 peptides bound to amylose resin, incubated with p21 (1 µg and 5 µg), extensively washed, maltose-fusion peptides eluted, blotted with anti-p21; details: both partners purified

T1 sequence (P38936 whole entry): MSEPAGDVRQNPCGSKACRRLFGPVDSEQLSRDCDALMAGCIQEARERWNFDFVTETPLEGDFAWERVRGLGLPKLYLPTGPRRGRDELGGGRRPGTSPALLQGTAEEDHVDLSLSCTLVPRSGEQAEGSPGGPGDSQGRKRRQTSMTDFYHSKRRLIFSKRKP

| Binder | binding result [1] | binding result [2] |
| --- | --- | --- |
| Akt2 (350–481) (domain or fragment, human, UniProt P31751 350-481, looked up, The tag is therefore uncertain; source: expressed in bacteria, purified; not shown: His6, C-terminal, kept) FYNQDHERLFELILMEEIRFPRTLSPEAKSLLAGLLKKDPKQRLGGGPSDAKEVMEHRFFLSINWQDVVQKKLLPPFKPQVTSEVDTRYFDDEFTAQSITITPPDRYDSLGLLELDQRTHFPQFSYSASIRE | binds |  |
| AKEVMEHRFFLSINWQDVVQKKLLPPFKPQVTSEVDTRYFDDEFTA (domain or fragment, human, UniProt P31751 400-445, looked up, The methods name no vector for this construct) [Akt2 (400–445) maltose binding fusion protein] |  | binds |

More lines, now with the values ahead:

| binding result [1] | binding result [2] | Binder |
| --- | --- | --- |
| binds |  | Akt2 (400–481) (domain or fragment, human, UniProt P31751 400-481, looked up, The tag is therefore uncertain; source: expressed in bacteria, purified; not shown: His6, C-terminal, kept) AKEVMEHRFFLSINWQDVVQKKLLPPFKPQVTSEVDTRYFDDEFTAQSITITPPDRYDSLGLLELDQRTHFPQFSYSASIRE |
|  | binds | KKLLPPFKPQVTSEVDTRYFDDEFTA (domain or fragment, human, UniProt P31751 420-445, looked up, The methods name no vector for this construct) [Akt2 (420–445) maltose binding fusion protein] |
